Experiments:
[1] = biological target: HpNikR mutant M5 (H74G, H75G) (Helicobacter pylori); experiment: crystal structure
[2] = biological target: HpNikR mutant M6 (C96S) (Helicobacter pylori); experiment: crystal structure

“HpNikR mutant M5 (H74G, H75G) (natural protein)” gave a stoichiometry N [1] of 4.

In the case of “HpNikR mutant M6 (C96S) (natural protein)”, the stoichiometry N [2] is reported as 4.

From PMC2875016
